Assay results from US20240247072A1 (KEYMED BIOSCIENCES, published 2024).

Tests used:
[1] = target: T1, recombinant cynomolgus monkey CD70 protein (cynomolgus monkey, UniProt A0A2K5WTU9 39-190); assay: competition ELISA, chimeric IgG titrated, CD27 coated, biotin-CD70, cynomolgus pair
T1 construct: it stands only in column heads ('Monkey', 'Cynomolgus Monkey CD70/CD27') and in result sentences; also called Monkey (ELISA)
T1 sequence: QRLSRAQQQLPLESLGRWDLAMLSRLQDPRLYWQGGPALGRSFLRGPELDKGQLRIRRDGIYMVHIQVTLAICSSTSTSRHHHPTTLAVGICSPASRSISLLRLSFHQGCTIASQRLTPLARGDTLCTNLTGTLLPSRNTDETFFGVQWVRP
Experimental: The recombinant CD27 protein was coated at 1 μg/mL in a 96-well microtiter plate and incubated overnight at 4° C. The next day, the plate was washed 3 times with PBS, added with 200 μL of 2% defatted dry milk/PBS, blocked at room temperature for 2 hours, and washed once with PBS. The purified chimeric antibody was divided to 12 concentration gradients starting at 100 nM and diluted in a 1:3 gradient. […] of the antibody was added per well and incubated at room temperature for 30 minutes. […] The plate was washed 3 times with PBST and PBS and dried by spinning. A secondary antibody Streptavidin-coupled horseradish peroxidase SA-HRP (BD bioscience, cat. No: 6222697) was diluted with 0.5% BSA in a ratio of 1:8000. 100 μL of the diluent was added into each well and incubated at room temperature for 30 minutes. The plate was washed 3 times with PBST and PBS and dried by spinning. 100 μl of color development solution (TMB solution, Sigma, Cat. No: T2885) was added into each well and protected from light at 37° C. for reaction. After the substrate developed moderately, 50 μl of H₂SO₄ was added into each well to terminate the reaction. The OD450 nm was determined by using an enzyme-linked detector within 30 minutes, and the data was collected. The results were calculated by using Graph Pad Prism 5 software.

[2] = target: T2, human CD70, full length, on CHO cells (CHO-human CD70-B07) (human, UniProt P32970 1-193); assay: FACS (iQue) on CHO-human CD70 stably transfected cells, Alexa Fluor 647 anti-human IgG secondary antibody
T2 construct: whole, on cells; Stably transfected CHO cells; also called CHO-CD70
T2 sequence (looked up): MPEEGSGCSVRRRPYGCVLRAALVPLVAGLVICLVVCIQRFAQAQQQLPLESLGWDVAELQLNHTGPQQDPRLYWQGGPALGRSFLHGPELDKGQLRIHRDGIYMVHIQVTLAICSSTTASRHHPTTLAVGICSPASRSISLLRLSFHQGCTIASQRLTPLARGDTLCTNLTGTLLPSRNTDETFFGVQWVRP
Experimental: (§1) The supernatant was discarded and the cells were gently tapped to be loosening. 50 μL of gradient diluted antibodies were added (antibody concentration: from 30 μg/mL, 3-fold dilution for 8 gradients) per well, and incubated at 4° C. for 1 hour. After incubation, 200 μL of 0.5% BSA was added to each well for washing 3 times. 50 μL/well of secondary antibody Alexa Fluro647 anti-human IgG (Jackson ImmunoResearch, Cat. No: 109-606-170) was added and incubated at 4° C. for 45 minutes. At the end of the incubation, each well was washed 3 times with 180 μL of 0.5% BSA and finally resuspended in 50 μL of PBS for iQue (Intellicyt) assay.

[3] = target: T2, human CD70, full length, on CHO cells …; assay: flow cytometry, chimeric IgG on CHO-human CD70 cells
[4] = target: T3, cynomolgus monkey CD70, full length, on CHO cells (CHO-monkey CD70-D01) (cynomolgus monkey, UniProt A0A2K5WTU9 1-190); assay: flow cytometry, chimeric IgG on CHO-cynomolgus monkey CD70 cells
T3 construct: whole, on cells; Stably transfected CHO cells; also called CHO-cynomolgus monkey CD70
T3 sequence: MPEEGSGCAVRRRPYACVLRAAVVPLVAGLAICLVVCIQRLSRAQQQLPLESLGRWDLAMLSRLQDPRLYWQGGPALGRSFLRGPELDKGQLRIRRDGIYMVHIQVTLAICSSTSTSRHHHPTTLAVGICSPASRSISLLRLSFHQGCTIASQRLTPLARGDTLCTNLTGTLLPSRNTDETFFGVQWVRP
Experimental: Different cells in logarithmic growth phase were taken, blocked with 3% BSA for 30 minutes, and plated to a 96-well U-plate at 5×10⁴ cells/100 μL. The centrifuge was performed at 1100 rpm for 3 minutes. The supernatant was discarded and the cells were gently tapped to be loosening. 50 μL of gradient diluted antibody was added (antibody concentration: from 30 μg/mL, 3-fold dilution for 5 gradients) per well, and incubated at 4° C. for 1 hour. After incubation, 180 μL of 0.5% BSA was added to each well for washing 3 times. 30 μL/well of secondary antibody AlexaFluro647 anti-human IgG (Jackson Immuno Research, Cat. No: 109-606-170) was added and incubated at 4° C. for 45 minutes. At the end of the incubation, each well was washed 3 times with 180 μL of 0.5% BSA and finally resuspended in 50 μL of PBS for iQue (Intellicyt, USA) assay.

[5] = target: T4, recombinant trimeric protein of human CD70 extracellular region (human CD70 mIgG Fc (knob) / mouse IgG Fc … (human, UniProt P01863 98-330 = IgG part)); assay: competition ELISA, chimeric IgG titrated, CD27 coated, biotin-CD70, human pair
T4 construct: The ELISA and Octet texts say only 'recombinant CD70 protein' / 'CM352 antigen'; also called recombinant human CD70 protein; recombinant CD70 protein
T4 chain 1: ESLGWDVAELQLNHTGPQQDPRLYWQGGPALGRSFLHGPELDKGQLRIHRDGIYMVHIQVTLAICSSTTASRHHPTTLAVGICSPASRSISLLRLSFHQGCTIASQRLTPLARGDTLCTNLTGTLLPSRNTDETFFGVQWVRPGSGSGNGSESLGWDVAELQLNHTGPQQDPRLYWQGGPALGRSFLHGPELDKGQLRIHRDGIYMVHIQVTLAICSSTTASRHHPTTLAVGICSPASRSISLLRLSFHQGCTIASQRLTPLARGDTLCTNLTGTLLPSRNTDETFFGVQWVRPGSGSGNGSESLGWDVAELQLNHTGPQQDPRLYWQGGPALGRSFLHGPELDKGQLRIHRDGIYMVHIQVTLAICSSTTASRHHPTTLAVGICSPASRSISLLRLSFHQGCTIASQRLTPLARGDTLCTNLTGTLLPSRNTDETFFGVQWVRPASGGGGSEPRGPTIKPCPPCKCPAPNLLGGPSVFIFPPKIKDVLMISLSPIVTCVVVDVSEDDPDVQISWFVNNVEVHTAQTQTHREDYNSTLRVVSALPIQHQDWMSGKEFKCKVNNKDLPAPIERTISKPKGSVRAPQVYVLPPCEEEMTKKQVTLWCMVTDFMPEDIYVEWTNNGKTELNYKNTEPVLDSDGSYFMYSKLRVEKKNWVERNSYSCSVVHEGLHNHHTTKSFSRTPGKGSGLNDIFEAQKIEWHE
T4 chain 2: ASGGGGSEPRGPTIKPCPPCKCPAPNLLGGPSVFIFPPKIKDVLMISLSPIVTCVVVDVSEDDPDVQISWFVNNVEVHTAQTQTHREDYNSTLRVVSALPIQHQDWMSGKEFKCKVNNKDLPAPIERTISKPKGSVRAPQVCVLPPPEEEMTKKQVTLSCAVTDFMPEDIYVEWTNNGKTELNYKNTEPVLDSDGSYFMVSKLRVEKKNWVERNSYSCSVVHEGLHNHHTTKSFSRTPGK

[6] = target: T3, cynomolgus monkey CD70, full length, on …; assay: FACS (iQue) on CHO-cynomolgus monkey CD70 stably transfected cells, Alexa Fluor 647 anti-human IgG secondary antibody
Experimental: as §1

- IC50 [1]: 0.08 nM
- EC50 (read off the curve) [2]: ~3 nM
- EC50 [3]: 10.2 nM
- EC50 [4]: 15.1 nM
- IC50 [5]: 0.06 nM
- EC50 (read off the curve) [6]: ~3 nM
B1: 39H5 chimeric antibody (antibody, V domains shown)
VH: EIQLVQSGPELKKPGETVKISCKASGYTFTNYGMNWVKQAPGQGLKWMGWINTYTGEPTYADDFTGRFAFSLETSASTAYLQINNLKNEDMAAYFCAREEDYRYVFNYWGQGTTLTVSS
VL: DIQMIQSTSSLSASLGNRVTISCRASQDISNYLNWYQQKPDGTVKLLIYDTSRLHAGVPSRFSGSGSGTDYSLTISNLEQEDIATYFCQQGVTLPLTFGAGTKLEIK
